# Test results as given in EP4667489A1 (Kyinno Biotechnology Co., Ltd., dated 2025).
# T1: human LAG3 expressed on 293T-LAG3 cells (human, UniProt P18627 23-525)
# T1 construct: whole, on cells; 293T cells stably expressing human LAG3 (Kyinno KC-0214); also called LAG3-expressing cells
# T1 sequence (looked up): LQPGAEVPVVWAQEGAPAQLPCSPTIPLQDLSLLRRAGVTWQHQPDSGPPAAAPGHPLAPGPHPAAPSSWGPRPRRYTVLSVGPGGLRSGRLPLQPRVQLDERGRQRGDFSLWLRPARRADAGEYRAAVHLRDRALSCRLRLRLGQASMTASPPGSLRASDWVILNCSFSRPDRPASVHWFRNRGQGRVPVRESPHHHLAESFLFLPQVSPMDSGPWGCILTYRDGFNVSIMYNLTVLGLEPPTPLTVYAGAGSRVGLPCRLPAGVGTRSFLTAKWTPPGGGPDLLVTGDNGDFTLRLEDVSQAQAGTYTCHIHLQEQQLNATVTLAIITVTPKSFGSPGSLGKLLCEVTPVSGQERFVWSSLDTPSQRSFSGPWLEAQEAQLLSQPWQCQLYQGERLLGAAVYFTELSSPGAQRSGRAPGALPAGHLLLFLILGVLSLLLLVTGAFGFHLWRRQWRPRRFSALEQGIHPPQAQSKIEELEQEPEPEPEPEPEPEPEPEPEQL
# T2: LAG3-hFc (fusion protein of the human LAG3 extracellular domain and human IgG1-Fc) (human, UniProt P18627 23-450)
# T2 construct: extracellular domain; not shown: human IgG1-Fc, Genbank CAC20454.1
# T2 sequence (looked up): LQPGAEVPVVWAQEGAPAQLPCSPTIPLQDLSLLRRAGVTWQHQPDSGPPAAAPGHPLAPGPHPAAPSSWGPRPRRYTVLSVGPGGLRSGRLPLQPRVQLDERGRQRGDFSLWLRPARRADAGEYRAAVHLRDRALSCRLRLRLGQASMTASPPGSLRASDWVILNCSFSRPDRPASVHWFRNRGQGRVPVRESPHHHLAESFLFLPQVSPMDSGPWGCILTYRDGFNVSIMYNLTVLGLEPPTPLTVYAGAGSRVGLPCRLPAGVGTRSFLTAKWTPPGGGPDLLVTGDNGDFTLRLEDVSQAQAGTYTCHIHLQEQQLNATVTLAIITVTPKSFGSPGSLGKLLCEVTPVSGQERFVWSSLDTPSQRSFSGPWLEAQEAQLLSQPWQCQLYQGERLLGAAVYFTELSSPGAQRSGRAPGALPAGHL
# Tests used:
# [1] = target: T3, human EGFR expressed on CT26-EGFR cells (human, UniProt P00533 25-1210); experiment: cell-based or functional assay
# [2] = target: T3, human EGFR expressed on CT26-EGFR cells; experiment: flow cytometry on CT26-EGFR cells
# [3] = target: T4, EGFR-mFc (fusion protein of the human EGFR extracellular domain and mouse Fc; Kyinno, Cat No.: KP-1148) (human; mouse, UniProt P00533 25-645); experiment: ELISA, blocking of EGFR-mFc binding to coated EGF-His
# T4 construct: extracellular domain; bought; also called EGFR-Fc; not shown: mouse Fc
# [4] = target: T1, human LAG3 expressed on 293T-LAG3 cells; experiment: flow cytometry on 293T-LAG3 cells
# [5] = target: T2, LAG3-hFc (fusion protein of the human …); experiment: flow cytometry, blocking of LAG3-hFc binding to Daudi cells
# [6] = target: T5, human PD1 expressed on 293T-PD1 cells (human, UniProt Q15116 25-288); experiment: flow cytometry on 293T-PD1 cells
# T5 construct: whole, on cells; 293T cells stably expressing human PD1 (Kyinno KC-0204); also called PD1-expressing cells; Jurkat NFAT-PD1-luc cells
# [7] = target: T6, PD1-hFc (fusion protein of the human PD1 extracellular domain and human IgG1-Fc) (human, UniProt Q15116 25-170); experiment: flow cytometry, blocking of PD1-hFc binding to 293T-PDL1 cells
# T6 construct: extracellular domain; also called human PD1-hFc; not shown: human IgG1-Fc, Genbank CAC20454.1
# T6 sequence (Q15116 25-170): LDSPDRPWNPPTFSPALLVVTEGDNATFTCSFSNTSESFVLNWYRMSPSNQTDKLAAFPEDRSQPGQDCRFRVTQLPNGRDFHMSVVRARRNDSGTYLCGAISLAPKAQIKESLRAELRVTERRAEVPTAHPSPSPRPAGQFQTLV
# T5 sequence (Q15116 25-288): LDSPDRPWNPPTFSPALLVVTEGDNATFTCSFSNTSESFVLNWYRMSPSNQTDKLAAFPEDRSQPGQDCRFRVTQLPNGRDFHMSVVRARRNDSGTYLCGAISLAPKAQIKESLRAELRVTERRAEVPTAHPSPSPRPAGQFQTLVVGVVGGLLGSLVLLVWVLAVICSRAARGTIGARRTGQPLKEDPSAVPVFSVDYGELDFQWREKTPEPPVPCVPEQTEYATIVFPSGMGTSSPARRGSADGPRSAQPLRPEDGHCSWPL
binder,measurement,setting,value
"KA-1063 H22A12-2V1-hIgG1 (antibody, V domains shown, anti-EGFR humanized antibody, human IgG1 / kappa) VH: QVQLVQSGAEVKKPGASVKVSCKASGYTFTDYYMNWVRQAPGQGLEWIGDINPNDGGTSYNQKFKGRATLTVDKSTSTAYMELSSLRSEDTAVYYCAREILYYVTSFYFDYWGQGTTVTVSS VL: DIQITQSPSSLSASVGDRVTITCSATSGVSYMHWYQQKPGKAPKRLIYDTSRLASGVPSRFSGSGSGTDYTLTISSLQPEDFATYYCQQWSSNPPYTFGQGTRLEIKR","IC50, luciferase reporter (procedure of Example 34)",[1],0.389 nM
same,EC50,[2],0.0382 mg/L
same,IC50,[3],0.0357 mg/L
"anti-LAG3 murine antibody 28G2 (hybridoma cell line KD-0019 28G2-7) (antibody, V domains shown, murine antibody tested as hybridoma culture supernatant) VH: DVKLQESGPGLVKPSQSLSLTCSVTGYSFTSGYYWNWIRLFPGNKLEWMGYVSYFGTNNYNPSLKNRFSITRDTSKNQFFLKLNSVSTEDTATYYCARGEEWDWSFDVWGTGTTVTVSS VL: DIVLTQSPAFMSASPGEKVTMTCSASSSVSYMHWYQQKSGTSPKRWIYDTSKLASGVPTRFSGSGSGTSYSLTISSMEAEDAATYYCQQWSTNPPYTFGGGTKLEIK",EC50,[4],1.08 mg/L
same,IC50,[5],1.26 mg/L
"anti-PD1 murine antibody 107D12-10 (hybridoma cell line KD-22-0054 107D12-10) (antibody, V domains shown, murine antibody tested as hybridoma culture supernatant) VH: QVQLKESGGGLVKPGGSLKLSCAASGFTFSDYGMHWVRQAPEKGLEWVAYISSGSYTIYYADTVRDRFTISRDSAKNTLFLQMTSLRSEDTAMYYCVRRGPGYFGSTALDYWGQGTTLTVSS VL: QIVLTQSPAIMSASPGEKVTMTCSATSGVSYMHWYQQKSGTSPKRWIYDTSRLASGVPARFSGSGSGTSYSLTISSMEAEDAATYYCQQWSSNPPYTFGSGTKLEIK",EC50,[6],0.685 mg/L
same,IC50,[7],2.26 mg/L
